The values that follow come from article PMC3906837.

The target of test [1] is WT ORF18 ArdA (Streptococcus faecalis (Tn916 conjugative transposon)). Kind of test: AUC; sedimentation equilibrium at 3.0 μM and 0.6 μM (monomers); 17 000, 27 000 and 35 000 r.p.m.; 20 °C; 200 mM NaCl, 20 mM Tris, 20 mM MES, 1 mM TCEP, pH 6.5; SEDPHAT.
Test [2] shares this target. The experiment in a line: AUC; sedimentation equilibrium at 15 μM (monomers); 17 000, 27 000 and 35 000 r.p.m.; 20 °C; 200 mM NaCl, 20 mM Tris, 20 mM MES, 1 mM TCEP, pH 6.5; SEDPHAT; dimer to monomers.
In test [3] the target is EcoKI Type I RM enzyme (E. coli (endogenous in E. coli NM1049(DE3))) (UniProt P08956).
Test [4] concerns the target L127E ArdA (Streptococcus faecalis (Tn916 conjugative transposon)). Kind of test: AUC; sedimentation equilibrium at 15 μM (monomers); 17 000, 27 000 and 35 000 r.p.m.; 20 °C; 200 mM NaCl, 20 mM Tris, 20 mM MES, 1 mM TCEP, pH 6.5; SEDPHAT; dimer to monomers.

The term stoichiometry N denotes a count of units in the complex or per binding partner. As a reminder, the Kd is the constant that tells how readily two partners part at equilibrium.

Take WT ORF18 ArdA (natural protein): the stoichiometry N in test [1] and in test [2] was 2 in each case.

As to L127E ArdA (natural protein), in test [3], the antimodification in vivo: titre ratio of phage λv.0 recovered from E. coli NM1049(DE3) expressing the ArdA protein (WT ORF18 ArdA 122.0; vector 0.9) was 1. In test [4], this substance gave a Kd of 10 µM and a stoichiometry N of 2.
